These results are taken from patent publication US20190300590A1 (PROTAGONIST THERAPEUTICS, published 2019).

Read-outs that look alike come from different tables or passages of the source. *1 amine or outer side, *2 acyl side, *3 side chain or, on linkers, in order; H or OH if unused. Bridges are numbered along the chain shown (N, C = ends). Primed or numbered codes have the meaning given here. [ ]: non-standard residue; d: D form. Phe(4-OMe)(3) = O-methyl-L-tyrosine (4-methoxy-L-phenylalanine), COc1ccc(C[C@H](N[*:1])C(=O)[*:2])cc1; Phe(4-OMe) = 4-methoxy-L-phenylalanine (O-methyl-L-tyrosine), COc1ccc(C[C@H](N[*:1])C(=O)[*:2])cc1; Phe(3,4-(OMe)2) = COc1ccc(C[C@H](N)C(=O)O)cc1OC; Tyr(3-tBu) = CC(C)(C)c1cc(C[C@H](N)C(=O)O)ccc1O; 2Nal = N[C@@H](Cc1ccc2ccccc2c1)C(=O)O; AEF = NCCOc1ccc(C[C@H](N)C(=O)O)cc1; αMeK = C[C@](N)(CCCCN)C(=O)O; αMeV = CC(C)[C@](C)(N)C(=O)O; Thp = NC1(C(=O)O)CCOCC1; Abu = CC[C@H](N)C(=O)O; Aib = CC(C)(N)C(=O)O; AEA = NCCOCC(=O)O; βAla = NCCC(=O)O

Assay [1] addresses Rat IL-23R_huFC (rat). In words: rat ELISA vs IL-23. Background: In an ELISA, binding on a coated surface is turned into a signal by an enzyme label.
In assay [2] the target is T1, IL-23R on DB cells (human, UniProt Q5VWK5 24-629).
T1 sequence (looked up): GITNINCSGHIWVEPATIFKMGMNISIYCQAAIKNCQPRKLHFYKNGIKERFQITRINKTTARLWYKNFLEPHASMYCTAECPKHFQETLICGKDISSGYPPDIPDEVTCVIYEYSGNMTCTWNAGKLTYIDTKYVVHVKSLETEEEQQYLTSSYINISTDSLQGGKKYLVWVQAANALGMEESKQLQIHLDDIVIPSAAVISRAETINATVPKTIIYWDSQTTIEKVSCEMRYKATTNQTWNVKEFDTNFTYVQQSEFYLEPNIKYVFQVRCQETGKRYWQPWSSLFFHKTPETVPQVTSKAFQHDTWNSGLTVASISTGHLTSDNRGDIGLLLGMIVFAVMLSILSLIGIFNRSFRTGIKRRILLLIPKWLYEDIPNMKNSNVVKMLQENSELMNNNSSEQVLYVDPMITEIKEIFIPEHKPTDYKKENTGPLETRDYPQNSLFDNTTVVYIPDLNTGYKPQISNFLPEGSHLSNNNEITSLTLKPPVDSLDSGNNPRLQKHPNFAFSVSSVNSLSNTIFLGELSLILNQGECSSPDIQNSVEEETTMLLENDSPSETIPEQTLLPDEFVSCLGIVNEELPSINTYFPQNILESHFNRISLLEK
In words: cell-based or functional assay.

Assay [3] addresses T2, Rat IL-23R_huFC (rat; human, UniProt F1LX96 39-369).
T2 sequence: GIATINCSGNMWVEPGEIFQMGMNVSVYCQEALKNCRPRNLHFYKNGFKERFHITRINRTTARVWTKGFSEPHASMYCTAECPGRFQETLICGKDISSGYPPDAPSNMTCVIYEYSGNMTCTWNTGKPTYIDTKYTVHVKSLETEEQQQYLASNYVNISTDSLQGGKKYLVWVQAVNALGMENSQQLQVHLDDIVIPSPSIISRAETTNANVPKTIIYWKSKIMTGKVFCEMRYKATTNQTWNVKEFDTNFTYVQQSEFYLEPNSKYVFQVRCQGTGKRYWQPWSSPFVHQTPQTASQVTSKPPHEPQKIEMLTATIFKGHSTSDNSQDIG
As to the kind of experiment: rat IL-23R competitive ELISA.

Assay [4] has as its target T3, IL23R_huFC (human, UniProt Q5VWK5 24-353).
T3 sequence (looked up): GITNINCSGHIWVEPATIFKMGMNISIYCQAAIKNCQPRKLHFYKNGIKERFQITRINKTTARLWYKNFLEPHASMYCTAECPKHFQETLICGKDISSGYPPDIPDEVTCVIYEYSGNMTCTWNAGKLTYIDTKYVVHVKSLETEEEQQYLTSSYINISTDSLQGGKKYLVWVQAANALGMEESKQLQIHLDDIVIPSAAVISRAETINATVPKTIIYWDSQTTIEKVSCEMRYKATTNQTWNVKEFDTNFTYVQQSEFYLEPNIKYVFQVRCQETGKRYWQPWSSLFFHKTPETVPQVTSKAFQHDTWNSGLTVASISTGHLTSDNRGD
In words: human ELISA vs IL-23.

The target of assay [5] is T4, IL-23R on human cells (IL-23R-expressing DB cells; human NK cells) (human, UniProt Q5VWK5 24-629).
T4 sequence (looked up): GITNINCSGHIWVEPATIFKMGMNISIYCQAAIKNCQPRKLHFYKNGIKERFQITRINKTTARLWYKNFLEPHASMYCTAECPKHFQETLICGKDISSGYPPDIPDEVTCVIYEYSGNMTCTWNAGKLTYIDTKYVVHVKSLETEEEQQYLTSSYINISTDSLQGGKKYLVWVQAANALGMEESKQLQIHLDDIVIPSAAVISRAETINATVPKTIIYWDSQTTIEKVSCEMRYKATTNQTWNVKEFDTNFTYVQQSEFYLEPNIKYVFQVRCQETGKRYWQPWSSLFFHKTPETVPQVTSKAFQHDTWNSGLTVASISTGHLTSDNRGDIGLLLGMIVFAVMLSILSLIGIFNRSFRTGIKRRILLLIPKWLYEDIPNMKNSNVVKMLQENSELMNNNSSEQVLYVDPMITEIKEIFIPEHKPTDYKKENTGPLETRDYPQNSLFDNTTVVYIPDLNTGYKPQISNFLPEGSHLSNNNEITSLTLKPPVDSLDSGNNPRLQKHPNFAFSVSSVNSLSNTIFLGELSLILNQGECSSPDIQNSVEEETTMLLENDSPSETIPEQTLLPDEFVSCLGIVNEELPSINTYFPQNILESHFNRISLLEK
In words: cell-based or functional assay.

Assay [6] concerns the target T4, IL-23R on human cells …. As to the kind of experiment: cell-based or functional assay. This is another data set of the same source.
Assay [7] addresses Rat IL-23R_huFC (rat). In words: rat ELISA vs IL-23. This is another data set of the same source.
Assay [8] deals with T3, IL23R_huFC. As to the kind of experiment: human ELISA vs IL-23. The source holds these as a separate data set.
Assay [9] concerns the target T3, IL23R_huFC. As to the kind of experiment: human ELISA vs IL-23. The source holds these as a separate data set.
The target of assay [10] is Rat IL-23R_huFC (rat). In words: rat ELISA vs IL-23. This is another data set of the same source.
The target in assay [11] is Rat IL-23R_huFC (rat). As to the kind of experiment: rat ELISA vs IL-23. The source holds these as a separate data set.

A word on the IC50: it is the concentration that inhibits the measured activity by half. Higher therefore signals weaker potency in that assay.

As to Ac-CRTWQ[Abu]YWRKFG[AEA][dK]-NH2 (thioether 1-6) [Ac-Cyclo-[CRTWQ-[Abu]]-YWRKFG-[AEA]-[(D)Lys]-NH2], the IC50 in assay [1] lay within 100 to 1000 nM.

B1: [Ac-[Pen]-NTWQ-[Pen]-[Phe(4-CONH2)]-[2-Nal]-[4-amino-4-carboxy-tetrahydropyran]-KNN-NH2]2DIG (peptide)
peptide: XNTWQXFXXKNN
modifications: Ac; Pen-Pen disulfide; Phe(4-CONH2); 2-Nal; 4-amino-4-carboxy-tetrahydropyran; NH2; DIG linker joins the two subunits
For B1, the “pStat3 HTRF IC50” value in assay [2] was < 10 nM.
Ac-CRTWQCYWRENGA[dK]-NH2 (cysteine pairing not given here) [Ac-CRTWQCYWRENGA-[(D)Lys]-NH2]: in assay [3], the concentration for half-maximal inhibition (IC50) worked out at 86 nM.
In turn, Ac-CRTWQCYWREYGA[dK]-NH2 (cysteine pairing not given here) [Ac-CRTWQCYWREYGA-[(D)Lys]-NH2] displayed an IC50 in assay [3] of 80 nM. The IC50 values of the last two molecules are within 1.5-fold of each other.
On to Ac-[Abu]QTWQC[Phe(4-OMe)(3)][Tyr(3-tBu)][αMeK]ENG-NH2 (thioether 1-6) [Ac-Cyclo-[[Abu]-QTWQC]-[Phe(4-OMe)]-[Tyr(3-tBu)]-[α-MeLys]-ENG-NH2], for which the half-inhibitory concentration (IC50) in assay [1] was 100 to 1000 nM; in assay [4], 25 to 100 nM.
Regarding Ac-[Abu]QTWQC[AEF][Phe(3,4-(OMe)2)][αMeK]K(Ac)NG-NH2 (thioether 1-6) [Ac-Cyclo-[[Abu]-QTWQC]-[Phe[4-(2-aminoethoxy)]]-[Phe(3,4-OMe2]-[α-MeLys]-[Lys(Ac)]-NG-NH2], the “pStat3 HTRF IC50” value in [5] is < 10 nM. Also, in assay [6], the “NK cell assay IC50 (IFNγ)” value was < 25 nM. Besides, the half-maximal inhibitory concentration (IC50) was in the range of 25 to 100 nM in assay [7] and 10 to 25 nM in [8].
On to CXTWQCYWRVFGXK (Ac-; [AEA]; [(D)Lys]; -NH2) [Ac-C-CYWRVFG-[AEA]-[(D)Lys]-NH2], for which the half-maximal inhibitory concentration (IC50) in assay [3] is 100 nM.
Ac-CADWVCYWRKFG[βAla][dK]-NH2 (cysteine pairing not given here) [Ac-CADWVCYWRKFG-[βAla]-[(D)Lys]-NH2] came in with an IC50 in assay [3] of 33 nM.
Ac-[Abu]QTWQC[AEF][2Nal][Thp]ENN-NH2 (thioether 1-6) [Ac-Cyclo-[[Abu]-QTWQC]-[Phe[4-(2-aminoethoxy)]]-[2-Nal]-[4-amino-4-carboxy-tetrahydropyran]-ENN-NH2]: the 50% inhibitory concentration (IC50) in assay [9] and in assay [10] was < 10 nM each time. Moreover, the “pStat3 HTRF IC50” value in assay [5] is < 10 nM. Moreover, the “NK cell assay IC50 (IFNγ)” value in assay [6] is < 25 nM.
Consider Ac-[Abu]QTWQC[AEF][2Nal][Aib]K(Ac)NA-NH2 (thioether 1-6) [Ac-Cyclo-[[Abu]-QTWQC]-[Phe[4-(2-aminoethoxy)]]-[2-Nal]-[Aib]-[Lys(Ac)]-NA-NH2], for which the 50% inhibitory concentration (IC50) in assay [9] is < 10 nM; in assay [11] it was 10 to 25 nM. Also, the “pStat3 HTRF IC50” value in assay [5] was < 10 nM. Also, the “NK cell assay IC50 (IFNγ)” value in assay [6] is < 25 nM.
For the molecule Ac-[Abu]QTWQC[AEF][2Nal][Aib]QNG-NH2 (thioether 1-6) [Ac-Cyclo-[[Abu]-QTWQC]-[Phe[4-(2-aminoethoxy)]]-[2-Nal]-[Aib]-QNG-NH2], the IC50 in assay [9] was < 10 nM; in assay [11], 10 to 25 nM. Also, the “pStat3 HTRF IC50” value in assay [5] was < 10 nM. Further, the “NK cell assay IC50 (IFNγ)” value in [6] was < 25 nM.
On to XQTWQXFXKKNG (as bracketed in name; thioether cyclo) [Ac-Cyclo-[[Abu]-QTWQ-[Pen]]-[Phe(4-OMe)]-[2-Nal][α-MeLys]-[Lys(Ac)]NG-NH2], for which, in assay [1], the concentration for half-maximal inhibition (IC50) was 100 to 1000 nM.

B2: [Ac-[Pen]-NTWQ-[Pen]-[Phe(4-OMe)]-[2-Nal]-[α-MeLeu]-KNN-NH2]2DIG (peptide)
peptide: XNTWQXFXLKNN
modifications: Ac; Pen-Pen disulfide; Phe(4-OMe); 2-Nal; α-MeLeu; NH2; DIG linker joins the two subunits
On to B2, for which the “pStat3 HTRF IC50” value in [2] was < 10 nM.
With Ac-[Abu]QTWQC[Phe(4-OMe)][2Nal][dN]K(Ac)NG-NH2 (thioether 1-6) [Ac-Cyclo-[[Abu]-QTWQC]-[Phe(4-OMe)]-[2-Nal]-[(D)Asn]-[Lys(Ac)]-NG-NH2], the figures for the 50% inhibitory concentration (IC50) in assay [1] and in assay [4] were 100 to 1000 nM and 25 to 100 nM, respectively.
For Ac-[Abu]QTWQC[AEF][2Nal][αMeV]K(Ac)NG-NH2 (thioether 1-6) [Ac-Cyclo-[[Abu]-QTWQC]-[Phe[4-(2-aminoethoxy)]]-[2-Nal]-α-MeVal]-[Lys(Ac)]-NG-NH2], the 50% inhibitory concentration (IC50) in assay [9] and in assay [10] was < 10 nM in each case. Besides, the “pStat3 HTRF IC50” value in [5] was < 10 nM. For the same molecule, the “NK cell assay IC50 (IFNγ)” value in assay [6] is < 25 nM.
As for Ac-[Abu]QTWQC[Phe(4-OMe)][2Nal][αMeK]ENG-NH2 (thioether 1-6) [Ac-Cyclo-[[Abu]-QTWQC]-[Phe(4-OMe)]-[2-Nal]-[α-MeLys]-ENG-NH2], the IC50 in assay [11] and in [8] was 10 to 25 nM each time. The “pStat3 HTRF IC50” value in assay [5] is < 10 nM. Moreover, in assay [6], the “NK cell assay IC50 (IFNγ)” value was < 25 nM.
CXTWQCYWRVFGXK (Ac-; [Cit]; [AEA]; [(D)Lys]; -NH2) [Ac-C-[Cit]-TWQCYWRVFG-[AEA]-[(D)Lys]-NH2] displayed a half-maximal inhibitory concentration (IC50) in assay [3] of 76 nM. That is a double-digit nanomolar value.
